Measurements from paper PMC10397247.

Assays:
4H3664-AA = molecular target: T1, 4H3664-AA; test: two-hybrid library CCmax; conditions: mean of both orientations;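 also: natural log of median RNA to DNA barcode read ratio; higher means stronger binding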
T1 chain: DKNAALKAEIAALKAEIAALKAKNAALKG

4H4033-AA = molecular target: T2, 4H4033-AA; test: two-hybrid library CCmax; conditions: mean of both orientations;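 also: natural log of median RNA to DNA barcode read ratio; higher means stronger binding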
T2 chain: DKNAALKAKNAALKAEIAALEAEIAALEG

4H481-AA = molecular target: T3, 4H481-AA; test: two-hybrid library CCmax; conditions: mean of both orientations;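 also: natural log of median RNA to DNA barcode read ratio; higher means stronger binding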
T3 chain: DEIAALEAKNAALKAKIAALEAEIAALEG

4H3922-AA = molecular target: T4, 4H3922-AA; test: two-hybrid library CCmax; conditions: mean of both orientations;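 also: natural log of median RNA to DNA barcode read ratio; higher means stronger binding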
T4 chain: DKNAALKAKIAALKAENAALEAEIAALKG

4H55-AA = molecular target: T5, 4H55-AA; test: two-hybrid library CCmax; conditions: mean of both orientations;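 also: natural log of median RNA to DNA barcode read ratio; higher means stronger binding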
T5 chain: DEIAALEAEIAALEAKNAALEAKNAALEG

4H369-AA = molecular target: T6, 4H369-AA; test: two-hybrid library CCmax; conditions: mean of both orientations;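 also: natural log of median RNA to DNA barcode read ratio; higher means stronger binding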
T6 chain: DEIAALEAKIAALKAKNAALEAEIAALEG

4H3605-AA = molecular target: T7, 4H3605-AA; test: two-hybrid library CCmax; conditions: mean of both orientations
T7 chain: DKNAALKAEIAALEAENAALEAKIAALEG

4H2935-AA = molecular target: T8, 4H2935-AA; test: two-hybrid library CCmax
T8 chain: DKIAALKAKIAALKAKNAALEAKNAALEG

4H3625-AA = molecular target: T9, 4H3625-AA; test: two-hybrid library CCmax; conditions: mean of both orientations
T9 chain: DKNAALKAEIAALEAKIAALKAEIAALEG

4H662-AA = molecular target: T10, 4H662-AA; test: two-hybrid library CCmax; conditions: mean of both orientations
T10 chain: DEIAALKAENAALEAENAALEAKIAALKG

4H327-AA = molecular target: T11, 4H327-AA; test: two-hybrid library CCmax; conditions: mean of both orientations
T11 chain: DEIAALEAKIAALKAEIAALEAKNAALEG

4H3378-AA = molecular target: T12, 4H3378-AA; test: two-hybrid library CCmax; conditions: mean of both orientations
T12 chain: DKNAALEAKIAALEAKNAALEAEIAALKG

4H3056-AA = molecular target: T13, 4H3056-AA; test: two-hybrid library CCmax; conditions: mean of both orientations
T13 chain: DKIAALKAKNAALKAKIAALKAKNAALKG

4H340-AA = molecular target: T14, 4H340-AA; test: two-hybrid library CCmax; conditions: mean of both orientations
T14 chain: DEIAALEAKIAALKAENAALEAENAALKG

4H3413-AA = molecular target: T15, 4H3413-AA; test: two-hybrid library CCmax; conditions: mean of both orientations
T15 chain: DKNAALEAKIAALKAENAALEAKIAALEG

4H3162-AA = molecular target: T16, 4H3162-AA; test: two-hybrid library CCmax; conditions: mean of both orientations
T16 chain: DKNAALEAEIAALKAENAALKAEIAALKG

4H32-AA = molecular target: T17, 4H32-AA; test: two-hybrid library CCmax; conditions: mean of both orientations
T17 chain: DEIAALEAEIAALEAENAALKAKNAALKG

4H3588-AA = molecular target: T18, 4H3588-AA; test: two-hybrid library CCmax; conditions: mean of both orientations
T18 chain: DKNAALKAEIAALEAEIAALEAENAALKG

4H3718-AA = molecular target: T19, 4H3718-AA; test: two-hybrid library CCmax; conditions: mean of both orientations
T19 chain: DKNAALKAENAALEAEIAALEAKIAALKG

4H2648-AA = molecular target: T20, 4H2648-AA; test: two-hybrid library CCmax; conditions: mean of both orientations
T20 chain: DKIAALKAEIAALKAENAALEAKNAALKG

4H3697-AA = molecular target: T21, 4H3697-AA; test: two-hybrid library CCmax; conditions: mean of both orientations
T21 chain: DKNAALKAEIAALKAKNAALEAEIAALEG

4H3865-AA = molecular target: T22, 4H3865-AA; test: two-hybrid library CCmax; conditions: mean of both orientations
T22 chain: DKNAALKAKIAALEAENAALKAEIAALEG

4H384-AA = molecular target: T23, 4H384-AA; test: two-hybrid library CCmax; conditions: mean of both orientations
T23 chain: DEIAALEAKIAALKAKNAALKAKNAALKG

4H2553-AA = molecular target: T24, 4H2553-AA; test: two-hybrid library CCmax
T24 chain: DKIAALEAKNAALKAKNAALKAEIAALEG

4H2907-AA = molecular target: T25, 4H2907-AA; test: two-hybrid library CCmax; conditions: mean of both orientations
T25 chain: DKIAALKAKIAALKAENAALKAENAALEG

4H982-AA = molecular target: T26, 4H982-AA; test: two-hybrid library CCmax; conditions: mean of both orientations
T26 chain: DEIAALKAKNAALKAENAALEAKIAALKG

4H3133-AA = molecular target: T27, 4H3133-AA; test: two-hybrid library CCmax; conditions: mean of both orientations
T27 chain: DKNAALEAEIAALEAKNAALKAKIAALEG

4H697-AA = molecular target: T28, 4H697-AA; test: two-hybrid library CCmax; conditions: mean of both orientations
T28 chain: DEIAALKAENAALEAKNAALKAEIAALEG

4H2611-AA = molecular target: T29, 4H2611-AA; test: two-hybrid library CCmax; conditions: mean of both orientations
T29 chain: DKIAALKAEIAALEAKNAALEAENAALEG

4H3631-AA = molecular target: T30, 4H3631-AA; test: two-hybrid library CCmax; conditions: mean of both orientations
T30 chain: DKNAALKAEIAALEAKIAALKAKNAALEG

4H2620-AA = molecular target: T31, 4H2620-AA; test: two-hybrid library CCmax; conditions: mean of both orientations
T31 chain: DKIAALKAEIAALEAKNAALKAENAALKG

4H3606-AA = molecular target: T32, 4H3606-AA; test: two-hybrid library CCmax; conditions: mean of both orientations
T32 chain: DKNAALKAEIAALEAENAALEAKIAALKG

4H908-bN = molecular target: T33, 4H908-bN; test: two-hybrid library CCNG1
T33 chain: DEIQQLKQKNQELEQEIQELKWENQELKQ

4H338-bN = molecular target: T34, 4H338-bN; test: two-hybrid library CCNG1
T34 chain: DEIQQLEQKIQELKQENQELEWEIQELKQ

4H687-bN = molecular target: T35, 4H687-bN; test: two-hybrid library CCNG1
T35 chain: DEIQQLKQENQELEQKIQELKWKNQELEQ

4H967-bN = molecular target: T36, 4H967-bN; test: two-hybrid library CCNG1
T36 chain: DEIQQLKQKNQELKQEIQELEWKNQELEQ

4H454-bN = molecular target: T37, 4H454-bN; test: two-hybrid library CCNG1
T37 chain: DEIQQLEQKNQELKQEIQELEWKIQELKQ

4H3427-bN = molecular target: T38, 4H3427-bN; test: two-hybrid library CCNG1
T38 chain: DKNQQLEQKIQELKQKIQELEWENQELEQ

4H754-bN = molecular target: T39, 4H754-bN; test: two-hybrid library CCNG1
T39 chain: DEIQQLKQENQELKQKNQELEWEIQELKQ

4H883-bN = molecular target: T40, 4H883-bN; test: two-hybrid library CCNG1
T40 chain: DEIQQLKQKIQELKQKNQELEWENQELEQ

4H797-bN = molecular target: T41, 4H797-bN; test: two-hybrid library CCNG1
T41 chain: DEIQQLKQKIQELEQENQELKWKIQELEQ

4H568-bN = molecular target: T42, 4H568-bN; test: two-hybrid library CCNG1
T42 chain: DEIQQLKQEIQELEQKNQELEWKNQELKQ

4H3782-bN = molecular target: T43, 4H3782-bN; test: two-hybrid library CCNG1
T43 chain: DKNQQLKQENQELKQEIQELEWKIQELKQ

4H3855-bN = molecular target: T44, 4H3855-bN; test: two-hybrid library CCNG1
T44 chain: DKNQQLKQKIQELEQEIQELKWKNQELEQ

4H717-bN = molecular target: T45, 4H717-bN; test: two-hybrid library CCNG1
T45 chain: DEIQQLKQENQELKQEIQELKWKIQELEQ

4H607-bN = molecular target: T46, 4H607-bN; test: two-hybrid library CCNG1
T46 chain: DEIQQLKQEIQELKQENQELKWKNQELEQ

4H72-bN = molecular target: T47, 4H72-bN; test: two-hybrid library CCNG1
T47 chain: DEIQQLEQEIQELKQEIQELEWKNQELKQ

4H918-bN = molecular target: T48, 4H918-bN; test: two-hybrid library CCNG1
T48 chain: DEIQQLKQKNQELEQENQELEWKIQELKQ

4H4001-bN = molecular target: T49, 4H4001-bN; test: two-hybrid library CCNG1
T49 chain: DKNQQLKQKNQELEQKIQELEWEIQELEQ

4H3354-bN = molecular target: T50, 4H3354-bN; test: two-hybrid library CCNG1
T50 chain: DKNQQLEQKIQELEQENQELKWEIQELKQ

4H953-bN = molecular target: T51, 4H953-bN; test: two-hybrid library CCNG1
T51 chain: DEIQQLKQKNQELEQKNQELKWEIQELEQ

B1: 4H2935-AA (peptide)
chain: DKIAALKAKIAALKAKNAALEAKNAALEG
B1 was tested, and the interaction score (4H3664-AA) was -1.44, the interaction score (4H4033-AA) was -1.05 and the interaction score (4H481-AA) was -1.6. The interaction score (4H3922-AA) was -1.89, the interaction score (4H55-AA) was 1.48 and the interaction score (4H369-AA) was -1.13. For the same binder, the interaction score (4H3605-AA) was -0.818, the interaction score (4H2935-AA) was -1.28 and the interaction score (4H3625-AA) was -1.65. For the same binder, the interaction score (4H662-AA) was -1.34 and the interaction score (4H327-AA) was -0.77.

B2: 4H2553-AA (peptide)
chain: DKIAALEAKNAALKAKNAALKAEIAALEG
B2 was tested, and the interaction score (4H3378-AA) was -1.98, the interaction score (4H3056-AA) was -1.68 and the interaction score (4H340-AA) was -0.687. For the same binder, the interaction score (4H3413-AA) was -1.58, the interaction score (4H3162-AA) was -1.5 and the interaction score (4H32-AA) was -0.574. The interaction score (4H3588-AA) was -1.93, the interaction score (4H3718-AA) was 1.12 and the interaction score (4H2648-AA) was -0.498. The interaction score (4H3697-AA) was -2.21, the interaction score (4H3865-AA) was -1.79 and the interaction score (4H384-AA) was -1.95. It also gave an interaction score (4H2553-AA) of -1.66, an interaction score (4H2907-AA) of -1.73 and an interaction score (4H982-AA) of 1.15. It also gave an interaction score (4H3133-AA) of -2.05, an interaction score (4H697-AA) of -1 and an interaction score (4H2611-AA) of -1.68. It also gave an interaction score (4H3631-AA) of -1.73, an interaction score (4H2620-AA) of -1.7 and an interaction score (4H3606-AA) of 1.86.

B3: 4H3354-bN (peptide)
chain: DKNQQLEQKIQELEQENQELKWEIQELKQ
With B3 the interaction score (4H908-bN) was -0.992, the interaction score (4H338-bN) was -0.511 and the interaction score (4H687-bN) was -1.25. For the same binder, the interaction score (4H967-bN) was -1.24, the interaction score (4H454-bN) was -0.726 and the interaction score (4H3427-bN) was -0.405. The interaction score (4H754-bN) was -0.289, the interaction score (4H883-bN) was -0.871 and the interaction score (4H797-bN) was -0.685. The interaction score (4H568-bN) was -0.364, the interaction score (4H3782-bN) was -1.06 and the interaction score (4H3855-bN) was -0.269. For the same binder, the interaction score (4H717-bN) was -0.894, the interaction score (4H607-bN) was -0.0582 and the interaction score (4H72-bN) was -1.09. The interaction score (4H918-bN) was -0.605, the interaction score (4H4001-bN) was -0.318 and the interaction score (4H3354-bN) was 1.43. It also gave an interaction score (4H953-bN) of -0.946.
